IntAct's records for PubMed 12878161

B1: Tripartite motif-containing protein 5 (Homo sapiens), Q9C035-4 (parent)
chain: MASGILVNVKEEVTCPICLELLTQPLSLDCGHSFCQACLTANHKKSMLDKGESSCPVCRISYQPENIRPNRHVANIVEKLREVKLSPEGQKVDHCARHGEKLLLFCQEDGKVICWLCERSQEHRGHHTFLTEEVAREYQVKLQAALEMLRQKQQEAEELEADIREEKASWKTQIQYDKTNVLADFEQLRDILDWEESNELQNLEKEEEDILKSLTNSETEMVQQTQSLRELISDLEHRLQGSVMELLQGVDGVIKRTENVTLKKPETFPKNQRRVFRAPDLKGMLEVFRELTDVRRYWGWSAMARSRFTATSTSQIQAILLPQPPK
partner: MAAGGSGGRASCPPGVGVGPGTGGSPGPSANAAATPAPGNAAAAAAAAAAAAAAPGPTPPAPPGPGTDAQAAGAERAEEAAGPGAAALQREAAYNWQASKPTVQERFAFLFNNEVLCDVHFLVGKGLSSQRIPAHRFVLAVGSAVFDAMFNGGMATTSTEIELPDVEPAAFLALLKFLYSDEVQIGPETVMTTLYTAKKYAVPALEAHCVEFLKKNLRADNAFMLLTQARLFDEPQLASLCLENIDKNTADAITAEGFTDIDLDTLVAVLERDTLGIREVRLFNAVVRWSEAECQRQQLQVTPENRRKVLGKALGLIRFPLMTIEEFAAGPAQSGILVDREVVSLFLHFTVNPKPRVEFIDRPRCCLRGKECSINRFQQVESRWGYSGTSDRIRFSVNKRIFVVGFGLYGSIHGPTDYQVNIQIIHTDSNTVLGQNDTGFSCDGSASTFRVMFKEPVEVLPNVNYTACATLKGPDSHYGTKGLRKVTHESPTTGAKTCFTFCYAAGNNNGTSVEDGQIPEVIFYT

Variants of: B1
Details: with btbd2_human BTBD2, Q9BX70

Variant	effect of a mutation on the interaction
MASGILVNVKEEVTAPIALELLTQPLSLDCGHSFCQACLTANHKKSMLDKGESSCPVCRISYQPENIRPNRHVANIVEKLREVKLSPEGQKVDHCARHGEKLLLFCQEDGKVICWLCERSQEHRGHHTFLTEEVAREYQVKLQAALEMLRQKQQEAEELEADIREEKASWKTQIQYDKTNVLADFEQLRDILDWEESNELQNLEKEEEDILKSLTNSETEMVQQTQSLRELISDLEHRLQGSVMELLQGVDGVIKRTENVTLKKPETFPKNQRRVFRAPDLKGMLEVFRELTDVRRYWGWSAMARSRFTATSTSQIQAILLPQPPK [C15A;C18A]	decreasing interaction
